Data reported in publication PMC7761795 (Biochemistry, 2020).

B1: UBE2D1 (enzyme)
chain: not shown
B2: UBE2E1 (enzyme, human, UniProt P51965 1-193, looked up)
chain: MSDDDSRASTSSSSSSSSNQQTEKETNTPKKKESKVSMSKNSKLLSTSAKRIQKELADITLDPPPNCSAGPKGDNIYEWRSTILGPPGSVYEGGVFFLDITFTPEYPFKPPKVTFRTRIYHCNINSQGVICLDILKDNWSPALTISKVLLSICSLLTDCNPADPLVGSIATQYMTNRAEHDRMARQWTKRYAT
B3: UBE2N (enzyme, human, UniProt P61088 1-152, looked up)
chain: MAGLPRRIIKETQRLLAEPVPGIKAEPDESNARYFHVVIAGPQDSPFEGGTFKLELFLPEEYPMAAPKVRFMTKIYHPNVDKLGRICLDILKDKWSPALQIRTVLLSIQALLSAPNPDDPLANDVAEQWKTNEAQAIETARAWTRLYAMNNI

Experiments:
OTUB1 wild-type = OTUB1 wild-type (human (by the printed UniProt accession), UniProt Q96FW1 1-271); assay: ITC
Chain of OTUB1 wild-type (Q96FW1 whole entry): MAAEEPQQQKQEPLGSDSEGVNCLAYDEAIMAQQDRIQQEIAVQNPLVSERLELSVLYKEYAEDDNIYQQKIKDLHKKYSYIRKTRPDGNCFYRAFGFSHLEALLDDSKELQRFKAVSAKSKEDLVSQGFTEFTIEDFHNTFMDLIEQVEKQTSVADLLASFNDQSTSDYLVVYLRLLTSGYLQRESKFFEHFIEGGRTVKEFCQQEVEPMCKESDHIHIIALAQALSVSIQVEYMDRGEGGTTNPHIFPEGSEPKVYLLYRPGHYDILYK

OTUB1 (C91S) = OTUB1 (C91S) (human (by the printed UniProt accession), UniProt Q96FW1 1-271, C91S); assay: ITC
Chain of OTUB1 (C91S) (Q96FW1 whole entry C91S): as the sequence (Q96FW1 whole entry) above, with C91S counted along it

| Binder | binding result (OTUB1 wild-type) | binding result (OTUB1 (C91S)) | Kd (OTUB1 (C91S)) |
| --- | --- | --- | --- |
| B1 | binds | binds |  |
| B2 |  | binds |  |
| B3 |  |  | 8.1 µM |
